Here are results for 1 substance from patent publication US7223834.

The subject of the data set is 41-mer peptide substrate (41-PS), QTVTWPDMELPLPRNITEGE-ARGSVILTVKPIFEVSPSPL-(BIOTINYL)K.

Turning to “aggrecan degrading metallo protease (ADMP)”, the “cleavage of 41-PS to the 21-mer product, HPLC assay” value was “Effect of incubation time was evaluated and found to be linear over the timecourse of the assay”.
